Patent US20200165325A1

Assays:
[1] = target: HIV-1 Env of strain 0330.v4.c3 (HIV-1)
[2] = target: HIV-1 Env of strain 0815.v3.c3 (HIV-1)
[3] = target: HIV-1 Env of strain 1054_07_TC4_1499 (HIV-1)
[4] = target: HIV-1 Env of strain 211-9 (HIV-1)
[5] = target: HIV-1 Env of strain 231965.c01 (HIV-1)
[6] = target: HIV-1 Env of strain 231966.c02 (HIV-1)
[7] = target: HIV-1 Env of strain 3103.v3.c10 (HIV-1)
[8] = target: HIV-1 Env of strain 3301.v1.c24 (HIV-1)
[9] = target: HIV-1 Env of strain 3718.v3.c11 (HIV-1)
[10] = target: HIV-1 Env of strain 620345.c01 (HIV-1)
[11] = target: HIV-1 Env of strain 62357_14_D3_4589 (HIV-1)
[12] = target: HIV-1 Env of strain 6540.v4.c1 (HIV-1)
[13] = target: HIV-1 Env of strain 703357.C02 (HIV-1)
[14] = target: HIV-1 Env of strain 89-F1_2_25 (HIV-1)
[15] = target: HIV-1 Env of strain AC10.0.29 (HIV-1)
[16] = target: HIV-1 Env of strain C1080.c03 (HIV-1)
[17] = target: HIV-1 Env of strain C2101.c01 (HIV-1)
[18] = target: HIV-1 Env of strain CAAN5342.A2 (HIV-1)
[19] = target: HIV-1 Env of strain CAP210.2.00.E8 (HIV-1)
[20] = target: HIV-1 Env of strain CAP45.2.00.G3 (HIV-1)
[21] = target: HIV-1 Env of strain CNE17 (HIV-1)
[22] = target: HIV-1 Env of strain CNE20 (HIV-1)
[23] = target: HIV-1 Env of strain CNE21 (HIV-1)
[24] = target: HIV-1 Env of strain CNE30 (HIV-1)
[25] = target: HIV-1 Env of strain CNE53 (HIV-1)
[26] = target: HIV-1 Env of strain CNE58 (HIV-1)
[27] = target: HIV-1 Env of strain Ce0393_C3 (HIV-1)
[28] = target: HIV-1 Env of strain Ce0682_E4 (HIV-1)
[29] = target: HIV-1 Env of strain Ce1176_A3 (HIV-1)
[30] = target: HIV-1 Env of strain Ce2010_F5 (HIV-1)
[31] = target: HIV-1 Env of strain Ce703010054_2A2 (HIV-1)
[32] = target: HIV-1 Env of strain P0402_c2_11 (HIV-1)
[33] = target: HIV-1 Env of strain P1981_C5_3 (HIV-1)
[34] = target: HIV-1 Env of strain Q23.17 (HIV-1)
[35] = target: HIV-1 Env of strain Q259.d2.17 (HIV-1)
[36] = target: HIV-1 Env of strain Q461.e2 (HIV-1)
[37] = target: HIV-1 Env of strain Q769.d22 (HIV-1)
[38] = target: HIV-1 Env of strain QH0692.42 (HIV-1)
[39] = target: HIV-1 Env of strain R1166.c01 (HIV-1)
[40] = target: HIV-1 Env of strain REJO4541.67 (HIV-1)
[41] = target: HIV-1 Env of strain SC422661.8 (HIV-1)
[42] = target: HIV-1 Env of strain T250-4 (HIV-1)
[43] = target: HIV-1 Env of strain T257-31 (HIV-1)
[44] = target: HIV-1 Env of strain T278-50 (HIV-1)
[45] = target: HIV-1 Env of strain THRO4156.18 (HIV-1)
[46] = target: HIV-1 Env of strain TRJO4551.58 (HIV-1)
[47] = target: HIV-1 Env of strain TRO.11 (HIV-1)
[48] = target: HIV-1 Env of strain WEAU_d15_410_787 (HIV-1)
[49] = target: HIV-1 Env of strain WITO4160.33 (HIV-1)
[50] = target: HIV-1 Env of strain X1254_c3 (HIV-1)
[51] = target: HIV-1 Env of strain ZM109F.PB4 (HIV-1)
[52] = target: HIV-1 Env of strain ZM135M.PL10a (HIV-1)
[53] = target: HIV-1 Env of strain ZM197M.PB7 (HIV-1)
[54] = target: HIV-1 Env of strain ZM214M.PL15 (HIV-1)
[55] = target: HIV-1 Env of strain ZM233M.PB6 (HIV-1)
[56] = target: HIV-1 Env of strain ZM247v1(Rev-) (HIV-1)
[57] = target: HIV-1 Env of strain ZM249M.PL1 (HIV-1)

Substance: NIH45-46 G54W IgG (antibody)
- In vitro neutralization IC80 [1]: 0.11 µg/mL
- In vitro neutralization IC80 [2]: 0.003 µg/mL
- In vitro neutralization IC80 [3]: 0.165 µg/mL
- In vitro neutralization IC80 [4]: > 50 µg/mL
- In vitro neutralization IC80 [5]: 0.035 µg/mL
- In vitro neutralization IC80 [6]: 0.11 µg/mL
- In vitro neutralization IC80 [7]: 0.56 µg/mL
- In vitro neutralization IC80 [8]: 0.004 µg/mL
- In vitro neutralization IC80 [9]: 0.04 µg/mL
- In vitro neutralization IC80 [10]: > 50 µg/mL
- In vitro neutralization IC80 [11]: 0.07 µg/mL
- In vitro neutralization IC80 [12]: > 50 µg/mL
- In vitro neutralization IC80 [13]: 17.6 µg/mL
- In vitro neutralization IC80 [14]: > 50 µg/mL
- In vitro neutralization IC80 [15]: 0.63 µg/mL
- In vitro neutralization IC80 [16]: 0.91 µg/mL
- In vitro neutralization IC80 [17]: 0.17 µg/mL
- In vitro neutralization IC80 [18]: 0.21 µg/mL
- In vitro neutralization IC80 [19]: > 50 µg/mL
- In vitro neutralization IC80 [20]: > 50 µg/mL
- In vitro neutralization IC80 [21]: 0.127 µg/mL
- In vitro neutralization IC80 [22]: 0.48 µg/mL
- In vitro neutralization IC80 [23]: 0.16 µg/mL
- In vitro neutralization IC80 [24]: 0.196 µg/mL
- In vitro neutralization IC80 [25]: 0.005 µg/mL
- In vitro neutralization IC80 [26]: 0.05 µg/mL
- In vitro neutralization IC80 [27]: 0.089 µg/mL
- In vitro neutralization IC80 [28]: 0.039 µg/mL
- In vitro neutralization IC80 [29]: 0.45 µg/mL
- In vitro neutralization IC80 [30]: 0.187 µg/mL
- In vitro neutralization IC80 [31]: 0.077 µg/mL
- In vitro neutralization IC80 [32]: 0.023 µg/mL
- In vitro neutralization IC80 [33]: 0.07 µg/mL
- In vitro neutralization IC80 [34]: 0.03 µg/mL
- In vitro neutralization IC80 [35]: 0.014 µg/mL
- In vitro neutralization IC80 [36]: 0.091 µg/mL
- In vitro neutralization IC80 [37]: 0.009 µg/mL
- In vitro neutralization IC80 [38]: 1.12 µg/mL
- In vitro neutralization IC80 [39]: 0.51 µg/mL
- In vitro neutralization IC80 [40]: 0.013 µg/mL
- In vitro neutralization IC80 [41]: 0.07 µg/mL
- In vitro neutralization IC80 [42]: 44.9 µg/mL
- In vitro neutralization IC80 [43]: 0.45 µg/mL
- In vitro neutralization IC80 [44]: > 50 µg/mL
- In vitro neutralization IC80 [45]: 1.81 µg/mL
- In vitro neutralization IC80 [46]: 0.05 µg/mL
- In vitro neutralization IC80 [47]: 0.13 µg/mL
- In vitro neutralization IC80 [48]: 0.003 µg/mL
- In vitro neutralization IC80 [49]: 0.04 µg/mL
- In vitro neutralization IC80 [50]: 0.018 µg/mL
- In vitro neutralization IC80 [51]: 0.07 µg/mL
- In vitro neutralization IC80 [52]: 0.16 µg/mL
- In vitro neutralization IC80 [53]: 0.18 µg/mL
- In vitro neutralization IC80 [54]: 0.15 µg/mL
- In vitro neutralization IC80 [55]: 0.11 µg/mL
- In vitro neutralization IC80 [56]: 2.6 µg/mL
- In vitro neutralization IC80 [57]: 0.007 µg/mL

Substance: NIH45-46 G54Y IgG (antibody)
- In vitro neutralization IC80 [1]: 0.09 µg/mL
- In vitro neutralization IC80 [2]: 0.015 µg/mL
- In vitro neutralization IC80 [3]: 0.236 µg/mL
- In vitro neutralization IC80 [4]: > 50 µg/mL
- In vitro neutralization IC80 [5]: 0.054 µg/mL
- In vitro neutralization IC80 [6]: 0.23 µg/mL
- In vitro neutralization IC80 [7]: 0.81 µg/mL
- In vitro neutralization IC80 [8]: 0.014 µg/mL
- In vitro neutralization IC80 [9]: 3.85 µg/mL
- In vitro neutralization IC80 [10]: > 50 µg/mL
- In vitro neutralization IC80 [11]: 0.09 µg/mL
- In vitro neutralization IC80 [12]: > 50 µg/mL
- In vitro neutralization IC80 [13]: 30.6 µg/mL
- In vitro neutralization IC80 [14]: > 50 µg/mL
- In vitro neutralization IC80 [15]: 0.9 µg/mL
- In vitro neutralization IC80 [16]: 1.83 µg/mL
- In vitro neutralization IC80 [17]: 0.27 µg/mL
- In vitro neutralization IC80 [18]: 0.27 µg/mL
- In vitro neutralization IC80 [19]: > 50 µg/mL
- In vitro neutralization IC80 [20]: > 50 µg/mL
- In vitro neutralization IC80 [21]: 0.264 µg/mL
- In vitro neutralization IC80 [22]: 2.4 µg/mL
- In vitro neutralization IC80 [23]: 0.29 µg/mL
- In vitro neutralization IC80 [24]: 0.263 µg/mL
- In vitro neutralization IC80 [25]: 0.027 µg/mL
- In vitro neutralization IC80 [26]: 0.11 µg/mL
- In vitro neutralization IC80 [27]: 0.134 µg/mL
- In vitro neutralization IC80 [28]: 0.065 µg/mL
- In vitro neutralization IC80 [29]: 0.58 µg/mL
- In vitro neutralization IC80 [30]: 0.235 µg/mL
- In vitro neutralization IC80 [31]: 0.07 µg/mL
- In vitro neutralization IC80 [32]: 0.049 µg/mL
- In vitro neutralization IC80 [33]: 0.09 µg/mL
- In vitro neutralization IC80 [34]: 0.06 µg/mL
- In vitro neutralization IC80 [35]: 0.034 µg/mL
- In vitro neutralization IC80 [36]: 0.103 µg/mL
- In vitro neutralization IC80 [37]: 0.024 µg/mL
- In vitro neutralization IC80 [38]: 1.5 µg/mL
- In vitro neutralization IC80 [39]: 0.84 µg/mL
- In vitro neutralization IC80 [40]: 0.02 µg/mL
- In vitro neutralization IC80 [41]: 0.09 µg/mL
- In vitro neutralization IC80 [42]: > 50 µg/mL
- In vitro neutralization IC80 [43]: 0.67 µg/mL
- In vitro neutralization IC80 [44]: > 50 µg/mL
- In vitro neutralization IC80 [45]: 2.14 µg/mL
- In vitro neutralization IC80 [46]: 0.07 µg/mL
- In vitro neutralization IC80 [47]: 0.22 µg/mL
- In vitro neutralization IC80 [48]: 0.008 µg/mL
- In vitro neutralization IC80 [49]: 0.09 µg/mL
- In vitro neutralization IC80 [50]: 0.041 µg/mL
- In vitro neutralization IC80 [51]: 0.168 µg/mL
- In vitro neutralization IC80 [52]: 0.3 µg/mL
- In vitro neutralization IC80 [53]: 0.21 µg/mL
- In vitro neutralization IC80 [54]: 0.23 µg/mL
- In vitro neutralization IC80 [55]: 0.78 µg/mL
- In vitro neutralization IC80 [56]: 3.57 µg/mL
- In vitro neutralization IC80 [57]: 0.011 µg/mL
